Assay results reported in the RNAGym collection of RNA variant scans (doi:10.1073/pnas.2313332121).
This sample holds only a part of the variants without activity.

B1: TPR 5TU (parent)
chain: GGAUCUUCUCGAUCUAACAAAAAAGACAAAUCUGCCACAAAGCUUGAGAGCAUCUUCGGAUGCAGAGGCGGCAGCCUUCGGUGGCGCGAUAGCGCCAACGUUCUCAACUAUGACACGCAAAACGCGUGCUCCGUUGAAUGGAGUUUAUCAUG

Variants of: B1
Assay: polymerase ribozyme fitness, log enrichment relative to wild type (log ratio); higher = more active; in vitro selection for triplet polymerase activity
Procedure, shortened: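 Mutant libraries for each subunit of a heterodimeric triplet polymerase ribozyme were made by PCR and then transcribed. Each library underwent one round of in vitro selection in triplicate: annealing with a biotinylated primer, the partner subunit and triplets, frozen incubation at −7 °C, gel excision of extended constructs, streptavidin-bead capture and RT-PCR. Input and output libraries were Illumina-sequenced, and only genotypes with ≥10 input reads and ≥1 read per output were kept. Fitness is the logarithm, base 2, of genotype enrichment over wild-type enrichment, computed from inverse-variance-weighted replicate averages.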

Point of comparison: C85U A89U C105G, “polymerase ribozyme fitness (log ratio)” value -1.55. Against it:
- C5A A40C G50U C57U G81C C95A U104G C116G G133A — lower, ≤ -4.2
- A64G C93G — lower, -4.05
- A37G U45A C96U — lower, ≤ -4.2
- A39U U44A C79G C132G U139A — lower, ≤ -4.2
- A23G C38U U61A — lower, ≤ -4.2
- A12U A110G — lower, -3.35
- G48U U53A C85U — lower, -1.94
- C54U G136A — higher, 0.306
- A17C G68C C85G C125U G143C — lower, ≤ -4.2
- A40G C85U — lower, -2.16
- C38U U45A G68C U102G A138G — lower, ≤ -4.2
- C10U C85G — lower, -3.57
- G11U C96G — higher, -1.31
- G83U A98C A115G — within 0.2 log units, -1.62
- U15G C99U A142U — lower, -1.77
- G59C G126U — higher, 0.134
- G59A C96A G117U — higher, -0.271
- G83C U101G A106U — lower, -3.95
- C5G G50A C87U C103G U111C C132U — lower, ≤ -4.2
- C14A A16G — higher, -0.651
- A19C C93G — lower, -2.84
- A49G G140A — lower, -3.77
- C14U G67A U151C — lower, ≤ -4.2
- G48C G84A A121G U134A G143A — lower, -3.91
- C18A A29U G136A — lower, ≤ -4.2
- G48A U55G A142C — lower, -2.84
- C51A U127G — lower, -4.1
- C76U C87U G140U U146C — lower, -3.72
- A23G C72U — lower, -3.74
- U55A A91G U134A — lower, -4.01
- G59C A60G C69U — lower, -2.47
- G67C G68A G83A U90A G117A — lower, ≤ -4.2
- C38U C95A — higher, -1.07
- C38U C79U A121U C125A G143U — lower, -3.92
- C38A U55A C85A — lower, -2.66
- G65A C105U — higher, -0.804
- A28G A52C U53C C57U C87A G141A — lower, ≤ -4.2
- C51G C85U U144G — higher, -1.3
- A52U U53A C57A G86A — higher, -1.31
- C8A C57U G67C C95A A97G U151A — lower, ≤ -4.2
- G50A A52U U78C C116A C149G — lower, ≤ -4.2
- C93G C116U — lower, -3.07
- C27U A28G A60G A98U G100A U135G — lower, ≤ -4.2
- A73G C93U A110U — lower, ≤ -4.2
- A37C A40C A66U C75G G94U A120G C131G G141A — lower, ≤ -4.2
- A21U A26G G71A C125U — lower, ≤ -4.2
- A37U C51U G92U — lower, -2.25
- U31G U53G G70U A89U C93U C114A C123G U135C G152U — lower, ≤ -4.2
- C85G U102G C129U A150C — lower, ≤ -4.2
- A16C C32U A122G — lower, -3.01
- U44A G50A C79A C99U U102G C108U — lower, ≤ -4.2
- U82A A107U — lower, -2.79
- U31G A41C C75U C85G G88C A137U — lower, ≤ -4.2
- U55A A113U A121G U139G G141U U144A — lower, ≤ -4.2
- C69U C87A G141U G143A — lower, ≤ -4.2
- C27G A37G C72A C105A — lower, -4.13
- U4A C51G G84A A106U C118A — lower, ≤ -4.2
- U31G C57G G58A A106G U111G G143U U144A — lower, ≤ -4.2
- G58C A64G G65A G71A C95U U101G — lower, ≤ -4.2
- C10G A40U A64U C76G C85A G117U G136A G143A — lower, ≤ -4.2
- U6C U61A A73C C85G — lower, ≤ -4.2
- C18G A49U A119G — lower, -1.83
- U13A A28U C36U G81C — lower, ≤ -4.2
- A138U A147U — lower, -3.38
- C10A A17U C36U C76U G84U U101A U104G C108U A121C — lower, ≤ -4.2
- U6C G48A A106G — lower, -3.13
- C35U C99G A119C G141U — lower, -1.83
- A28U A29U U61A G81A C93A — lower, ≤ -4.2
- G141U — higher, 1.61
- C85A C96U C132A — lower, -3.67
- C18G A26U A47U G67C C105G U146A C149G — lower, ≤ -4.2
- A20C A30C G100C U102G G143U U145G — lower, ≤ -4.2
- A17U C35A A47U A66C A73U G86A A91C U109G — lower, ≤ -4.2
- G83U A115C — higher, -0.337
- A22U C103G A110C — lower, ≤ -4.2
- U55A C72A C99U G126A U139C — lower, ≤ -4.2
- A40G C125G — lower, -2.5
- A17G A49C C87G C123G G141A — lower, ≤ -4.2
- U9G A23C U56A A73U G86C — lower, ≤ -4.2
- A89G A98G G143C — lower, -3.66
- G48C A115G G133A — lower, -3.85
- A47G G86U G88C U109G — lower, ≤ -4.2
